According to patent US11780901B2, “Analogues of parathyroid hormone (1-34) that function as agonists of the parathyroid hormone receptor-1 and display modified activity profiles” (Wisconsin Alumni Research Foundation, priority 2013, dated 2023):

Columns and labels:
PTHR2 [1] = target: T1, PTHR2 (Homo sapiens, UniProt P49190); assay: Antagonism of PTHR2 activation by PTH(1-34)-NH2; assay type: cell-based; parameters: expressed in transfected cells; host or cells: cells stably expressing PTHR2; conditions: FIG. 11
Text: Data points represent mean±s.e.m from four independent experiments. Curves were fit to the data using a four-parameter sigmoidal dose-response equation.
See Hoare, S. R. J., Clark, J. A. & Usdin, T. B. Molecular determinants of tuberoinfundibular peptide of 39 residues (TIP39) selectivity for the parathyroid hormone-2 (PTH2) receptor—N-terminal truncation of TIP39 reverses PTH2 receptor/PTH1 receptor binding selectivity. Journal of Biological Chemistry 275, 27274-27283 (2000) and Gardella, T. J., Luck, M. D., Jensen, G. S., Usdin, T. B. & Juppner, H. Converting parathyroid hormone-related peptide (PTHrP) into a potent PTH-2 receptor agonist.

PTHR1 [2] = target: T2, PTHR1 (Homo sapiens, UniProt Q03431); assay: Functional selectivity (Gs activation/cAMP production vs βarr recruitment); assay type: cell-based; parameters: expressed in transfected cells; host or cells: cells stably expressing PTHR1; conditions: cAMP activation vs βarr1 and βarr2 recruitment, relative to PTH (1-34)
T2 sequence (Q03431 27-593): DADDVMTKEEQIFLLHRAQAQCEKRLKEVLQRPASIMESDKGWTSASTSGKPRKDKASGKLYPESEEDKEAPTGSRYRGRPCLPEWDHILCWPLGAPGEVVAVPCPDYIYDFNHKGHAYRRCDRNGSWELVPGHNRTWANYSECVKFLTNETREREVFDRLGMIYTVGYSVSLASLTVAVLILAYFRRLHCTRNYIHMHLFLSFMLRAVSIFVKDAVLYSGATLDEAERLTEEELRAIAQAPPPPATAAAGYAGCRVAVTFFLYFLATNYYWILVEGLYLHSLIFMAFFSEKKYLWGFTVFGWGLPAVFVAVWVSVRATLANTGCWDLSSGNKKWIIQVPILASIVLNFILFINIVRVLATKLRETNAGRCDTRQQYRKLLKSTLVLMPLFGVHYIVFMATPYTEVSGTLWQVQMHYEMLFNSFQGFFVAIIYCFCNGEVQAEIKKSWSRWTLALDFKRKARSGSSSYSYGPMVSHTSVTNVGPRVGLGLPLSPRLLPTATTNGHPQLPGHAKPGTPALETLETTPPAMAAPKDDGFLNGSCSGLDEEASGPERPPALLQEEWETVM
Method: More specifically, the initial studies that yielded the compounds disclosed and claimed herein were conducted to determine whether there is a correlation between βarr recruitment and receptor residence time of a PTHR1 agonist. The initial studies were thus conducted in two steps. First, the functional selectivity (Gs activation as indicated by cAMP production vs. βarr recruitment) of several PTHR1 agonists that display substantial differences in signaling duration were evaluated. Second, novel PTHR1 agonists were designed that have high functional selectivity and evaluated the signaling duration of these biased agonists.
(§1) The functional selectivity of BA058 is more significant than that of PTHrP. […] LA-PTH is a long-acting PTH analog. […] The middle panels in FIG. 2 are graphs depicting, from left-to-right: βarr1 and βarr2 recruitment, presented as normalized BRET signals (bioluminescence resonance energy transfer) as a function of the log of the peptide concentration, and cAmp activation presented as normalized RLU signals (relative light units) as a function of the log of the peptide concentration. Red=PTH. Orange=LA=LA−PTH. Blue=BA058. Green=PTHrP. (BRET assays are well known and suitable kits are available commercially. See, for example, Promega's “NanoBRET” kits, catalogs nos. N1821 and N1811; Promega Corporation, Fitchburg, Wis.). The table at the bottom of FIG. 2 presents the pEC50 and Emax values for the […] and βarr2 recruitment and cAMP activation. FIG. 3 presents the data for the bias of the activity—either toward βarr recruitment or cAMP activation.
Incorporating (R*)-β^2Leu/(D)-Leu at the 7th position or (R*)-β^2Nle at the 8th position leads to high Gs-biased agonism. […] (D)-Nle is poorly tolerated at the 8th position for both cAMP signaling and βarr recruitment. The top panels in FIG. 5 are graphs depicting, from left-to-right: βarr1 and βarr2 recruitment, presented as normalized BRET signals as a function of the log of the peptide concentration, and cAmp activation presented as normalized RLU signals as a function of the log of the peptide concentration. […]

PTHR1 [3] = target: T2, PTHR1; parameters: expressed in transfected cells; conditions: previous studies; cited from earlier work
R^0 state of PTHR1 = target: T3, R^0 state of PTHR1 (Homo sapiens, UniProt Q03431); conditions: relative to PTH (1-34); cited from earlier work
T3 construct: expressed in transfected cells; host or cells: COS-7, transient; membranes
T3 sequence (Q03431 27-593): T2 sequence (Q03431 27-593)

PTHR2 ECL1 chimera = assay: Activation of PTHR2 variant, ECL1 chimera; assay type: cell-based; conditions: 100 nM
Text: (§2) Molecular basis of PTHR1 vs. PTHR2 selectivity. Previous receptor-mutation studies have identified sites within PTHR1 and PTHR2 that play critical roles in determining peptide agonist selectivity.

PTHR2 I244L = target: T4, PTHR2 I244L (Homo sapiens, UniProt P49190, I244L); assay: Activation of PTHR2 variant I244L; assay type: cell-based; conditions: 100 nM
T4 construct: expressed in transfected cells
Text: as §2

PTHR2 [4] = target: T1, PTHR2; parameters: expressed in transfected cells; conditions: previous studies; cited from earlier work
PTHR2 Y318I = target: T5, PTHR2 Y318I (Homo sapiens, UniProt P49190, Y318I); assay: Activation of PTHR2 variant Y318I; assay type: cell-based; conditions: 100 nM
T5 construct: expressed in transfected cells
Text: as §2

PTHR1 [5] = target: T2, PTHR1; assay: βarr recruitment (BRET); assay type: cell-based; parameters: expressed in transfected cells; host or cells: cells stably expressing PTHR1; conditions: compared with PTH and LA-PTH
Text: as §1

PTHR1 [6] = target: T2, PTHR1; assay: Wash-out assay, duration of PTHR1 activation; assay type: cell-based; parameters: expressed in transfected cells; host or cells: cells stably expressing PTHR1; conditions: PTHR1; agonist at ~EC80; PTH(1-34)-NH2 = 100
Text: Duration of activation for PTHR1 and PTHR2. To assess the duration of PTHR1 and PTHR2 activation induced by α/β-peptides 14 and 15, the time course of cAMP production by each receptor was examined after stimulation with an agonist and subsequent washing of the cells to remove unbound peptide (wash-out assay). […] During the initial “ligand-on” phase, cells stably expressing PTHR1 or PTHR2 were stimulated with an agonist concentration corresponding to ˜EC80; the medium contained D-luciferin. […] After the addition of fresh medium containing D-luciferin, the luminescence decay is measured. The area under the “ligand-off” curve (AUC) reflects the duration of signaling, which may be related to residence time of the agonist on the receptor but could have other origins at the molecular level.

rat PTHR-1 (GR35 cells) = target: T6, rat PTHR-1 (GR35 cells) (Rattus norvegicus, UniProt P25961); assay: Washout assay of Gs-biased PTHR1 agonists (cAMP response after washout); assay type: cell-based; conditions: compared with PTH (1-34)
T6 construct: expressed in transfected cells
T6 sequence (P25961 27-591): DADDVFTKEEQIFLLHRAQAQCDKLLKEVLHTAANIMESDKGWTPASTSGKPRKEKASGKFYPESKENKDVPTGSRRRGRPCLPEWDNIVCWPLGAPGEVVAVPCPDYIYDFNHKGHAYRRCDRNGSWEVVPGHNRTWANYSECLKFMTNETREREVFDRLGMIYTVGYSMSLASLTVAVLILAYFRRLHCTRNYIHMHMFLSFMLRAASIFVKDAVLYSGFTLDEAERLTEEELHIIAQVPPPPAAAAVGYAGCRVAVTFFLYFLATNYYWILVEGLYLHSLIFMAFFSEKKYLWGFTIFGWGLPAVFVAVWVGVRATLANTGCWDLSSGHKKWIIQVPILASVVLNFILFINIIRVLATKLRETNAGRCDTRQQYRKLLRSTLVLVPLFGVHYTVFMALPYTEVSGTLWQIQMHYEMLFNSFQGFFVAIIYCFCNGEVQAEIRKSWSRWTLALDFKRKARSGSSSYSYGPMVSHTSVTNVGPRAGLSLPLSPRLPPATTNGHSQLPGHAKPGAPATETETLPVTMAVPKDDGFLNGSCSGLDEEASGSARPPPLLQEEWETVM
Method: These “washout assays”^7,8,21 assess the ability of the peptides to form stable ligand-receptor complexes capable of stimulating prolonged cAMP responses. The ability of a peptide to elicit prolonged cAMP responses via PTHR-1 following washout typically correlates with the affinity of that peptide for the R^0 state.^7,8,21
HEK293 cell monolayers expressing rat PTHR-1 (GR35 cells) were treated with ligand in for 14 minutes. This buffer was then discarded, and the cell monolayer was rinsed (2×). Buffer containing luciferin was introduced for 120 minutes. Luminescence response was recorded before and after washout, with luminescence readings recorded every 2 minutes. The area under the curve (AUC) for luminescence response curve was determined using GraphPad Prism.
Data were processed by using the Microsoft Excel and GraphPad Prism 4.0 software packages. Data from binding and cAMP dose—response assays were analyzed using a sigmoidal dose—response model with variable slope. Washout responses were assessed by quantifying the area under the luminescence response curve (AUC) following washout. Post-washout AUC was normalized by dividing the post-washout AUC by the pre-washout AUC. Paired data sets were statistically compared by using Student's t test (two-tailed) assuming unequal variances for the two sets.

T1 sequence (P49190 25-550): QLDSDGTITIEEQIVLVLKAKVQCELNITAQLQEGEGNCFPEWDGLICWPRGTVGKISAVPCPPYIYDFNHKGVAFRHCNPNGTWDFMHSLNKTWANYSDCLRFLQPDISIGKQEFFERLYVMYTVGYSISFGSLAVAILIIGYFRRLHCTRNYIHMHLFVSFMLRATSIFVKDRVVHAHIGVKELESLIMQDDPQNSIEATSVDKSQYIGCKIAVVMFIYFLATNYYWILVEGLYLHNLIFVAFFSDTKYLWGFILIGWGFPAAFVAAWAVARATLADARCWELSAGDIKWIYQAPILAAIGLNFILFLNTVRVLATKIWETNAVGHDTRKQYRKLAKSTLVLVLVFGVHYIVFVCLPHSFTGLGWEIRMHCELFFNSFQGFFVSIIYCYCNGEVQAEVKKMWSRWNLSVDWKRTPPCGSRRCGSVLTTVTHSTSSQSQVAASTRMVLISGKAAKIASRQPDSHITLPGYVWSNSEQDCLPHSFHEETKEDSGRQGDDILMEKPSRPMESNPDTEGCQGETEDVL
T4 sequence (P49190 25-550 I244L): as the sequence (P49190 25-550) above, with I220L counted along it
T5 sequence (P49190 25-550 Y318I): as the sequence (P49190 25-550) above, with Y294I counted along it

| antagonism of PTHR2 activation by PTH(1-34)-NH2 (in words) (PTHR2 [1]) | agonist activity at PTHR2 I244L relative to wild-type PTHR2 (in words) (PTHR2 I244L) | agonist activity at PTHR2 Y318I relative to wild-type PTHR2 (in words) (PTHR2 Y318I) | βarr recruitment efficacy maximum (in words) (PTHR1 [5]) | Normalized ligand-on Emax (PTHR1 [6]) | signaling duration after washout (in words) (rat PTHR-1 (GR35 cells)) | Substance | signaling bias / functional selectivity (in words) (PTHR1 [2]) | PTHR1 agonist activity (in words) (PTHR1 [3]) | R0 affinity (in words) (R^0 state of PTHR1) | agonist activity at PTHR2 ECL1 chimera relative to wild-type PTHR2 (in words) (PTHR2 ECL1 chimera) | PTHR2 agonist activity (in words) (PTHR2 [4]) |
| --- | --- | --- | --- | --- | --- | --- | --- | --- | --- | --- | --- |
| antagonistic effect | much more susceptible to activation | much more susceptible to activation | lower efficacy βarr recruitment maximum | 102 ± 1 |  | PTHrP(1-36)-NH2: parathyroid hormone-related protein fragment, naturally PTHR1-selective agonist | biased toward cAMP activation relative to both βarr1 and βarr2 recruitment | potent agonist | moderate | much more susceptible to activation | very weak agonist |
|  |  |  |  |  | more transient signaling than PTH (1-34) | Ligand 12: PTH(1-34) analogue with replaced residue at position 8 (character image); highly Gs-biased (SVSEIQLXHNLGKHLNSMERVEWLRKKLQDVHNF; non-natural residue at position 8; MOD_RES (8)..(8) X at position 8 is (R*)-Beta-2-Norleucine.) | strongly biased toward cAMP activation relative to both βarr1 and βarr2 recruitment |  |  |  |  |
